Test results published in patent US20020049303A1 (OKLAHOMA MEDICAL RESEARCH FOUNDATION, published 2002).
Where no end group is shown, it is not given here.

What was measured:
[1] = target: T1, recombinant memapsin 2 (M2pd), auto-activated from pro-M2pd at pH 4.0 (human, UniProt P56817 25-419, limits assumed); assay: Ki quoted for the inhibitor used in the crystal trials; assay not described at this place
T1 construct: also called beta-secretase

[2] = target: T1, recombinant memapsin 2 (M2pd), …; assay: enzyme inhibition with a synthetic fluorogenic peptide substrate
Experimental: Enzyme activity was measured as described above, but with the addition of either OM99-1 or OM99-2.

[3] = target: T1, recombinant memapsin 2 (M2pd), …; assay: comparison of Ki of the inhibitor without P4 Glu with that of OM99-2

T1 sequence (P56817 25-419 limits assumed): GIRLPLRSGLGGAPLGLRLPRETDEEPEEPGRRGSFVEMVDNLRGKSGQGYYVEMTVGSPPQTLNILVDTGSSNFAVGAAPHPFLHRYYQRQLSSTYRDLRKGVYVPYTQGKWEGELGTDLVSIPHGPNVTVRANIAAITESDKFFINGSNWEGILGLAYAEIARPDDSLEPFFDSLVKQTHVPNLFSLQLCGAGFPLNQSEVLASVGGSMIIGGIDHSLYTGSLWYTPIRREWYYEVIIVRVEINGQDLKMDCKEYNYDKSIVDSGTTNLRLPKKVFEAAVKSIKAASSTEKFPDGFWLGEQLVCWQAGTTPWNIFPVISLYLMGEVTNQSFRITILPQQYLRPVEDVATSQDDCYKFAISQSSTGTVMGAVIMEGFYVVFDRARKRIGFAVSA

Row | Binder | Ki [1] [nM] | Ki [2] [nM] | fold increase in Ki against OM99-2 [3] [fold]
1 | EVNLAAEF (also: Leu-Ala peptide bond replaced by hydroxyethylene isostere -CH(OH)-CH2-) [OM99-2: Glu-Val-Asn-Leu*Ala-Ala-Glu-Phe] | 10 |  | 
2 | VNLAAEF (also: Leu-Ala peptide bond replaced by hydroxyethylene isostere -CH(OH)-CH2-, also called OMR99-1) [OM99-1: Val-Asn-Leu*Ala-Ala-Glu-Phe] |  | 30 | 10
